Laboratory results: paper PMC5268470

Experiments:
[1] = [3H]-taurocholate uptake, Huh-7; conditions: glycan lost; control: NTCP-WT
[2] = cell surface biotinylation, immunoblot; conditions: glycan lost; control: NTCP-WT
[3] = anti-HA confocal immunofluorescence, HepG2; conditions: glycan lost; control: NTCP-WT
[4] = anti-HA IP-immunoblot, ImageJ quantification; conditions: glycan lost; control: NTCP-WT
[5] = Myrcludex B-FITC cell-surface fluorescence, plate reader; conditions: glycan lost; control: NTCP-WT
[6] = [3H]-taurocholate uptake, 2 min, HepG2; conditions: glycan lost; control: NTCP-WT
[7] = HBeAg ELISA, 3 days post infection, HepG2; conditions: glycan lost; control: NTCP-WT
[8] = intracellular cccDNA qPCR, 3 days post infection, HepG2; conditions: glycan lost; control: NTCP-WT
[9] = [3H]-taurocholate uptake, HepG2, untagged NTCP; conditions: glycan lost; control: untagged NTCP-WT

B1: Na+-taurocholate cotransporting polypeptide (NTCP): NTCP-N5,11Q (protein)
parent chain: MEAHNASAPFNFTLPPNFGKRPTDLALSVILVFMLFFIMLSLGCTMEFSKIKAHLWKPKGLAIALVAQYGIMPLTAFVLGKVFRLKNIEALAILVCGCSPGGNLSNVFSLAMKGDMNLSIVMTTCSTFCALGMMPLLLYIYSRGIYDGDLKDKVPYKGIVISLVLVLIPCTIGIVLKSKRPQYMRYVIKGGMIIILLCSVAVTVLSAINVGKSIMFAMTPLLIATSSLMPFIGFLLGYVLSALFCLNGRCRRTVSMETGCQNVQLCSTILNVAFPPEVIGPLFFFPLLYMIFQLGEGLLLIAIFWCYEKFKTPKDKTKMIYTAATTEETIPGALGNGTYKGEDCSPCTA
In the case of B1, the “other: transport activity” value [1] is reported as “decreases”, the localisation_or_trafficking [2] is reported as “abolishes” and the localisation_or_trafficking [3] is reported as “changes”. For the same protein, the expression_or_secretion [4] was “decreases” and the localisation_or_trafficking [5] was “decreases”.

B2: Na+-taurocholate cotransporting polypeptide (NTCP): NTCP-N5Q (protein)
parent chain: B1 parent chain
With B2 the “other: transport activity” value [6] was “no change”, the localisation_or_trafficking [2] was “no change” and the “other: HBV receptor activity (infection)” value [7] was “no change”. The localisation_or_trafficking [3] was “no change”, the “other: HBV receptor activity (infection)” value [8] was “no change” and the localisation_or_trafficking [5] was “decreases”.

B3: Na+-taurocholate cotransporting polypeptide (NTCP): untagged NTCP-N5,11Q (protein)
parent chain: B1 parent chain
For B3, the “other: transport activity” value [9] was “decreases”.

B4: Na+-taurocholate cotransporting polypeptide (NTCP): NTCP-N11Q (protein)
parent chain: B1 parent chain
In the case of B4, the “other: transport activity” value [6] is reported as “no change”, the localisation_or_trafficking [2] is reported as “no change” and the “other: HBV receptor activity (infection)” value [7] is reported as “no change”. The localisation_or_trafficking [3] was “no change”, the “other: HBV receptor activity (infection)” value [8] was “no change” and the localisation_or_trafficking [5] was “decreases”.
